T1: CD19 (UniProt P15391 20-556, limits assumed)
T1 sequence (looked up): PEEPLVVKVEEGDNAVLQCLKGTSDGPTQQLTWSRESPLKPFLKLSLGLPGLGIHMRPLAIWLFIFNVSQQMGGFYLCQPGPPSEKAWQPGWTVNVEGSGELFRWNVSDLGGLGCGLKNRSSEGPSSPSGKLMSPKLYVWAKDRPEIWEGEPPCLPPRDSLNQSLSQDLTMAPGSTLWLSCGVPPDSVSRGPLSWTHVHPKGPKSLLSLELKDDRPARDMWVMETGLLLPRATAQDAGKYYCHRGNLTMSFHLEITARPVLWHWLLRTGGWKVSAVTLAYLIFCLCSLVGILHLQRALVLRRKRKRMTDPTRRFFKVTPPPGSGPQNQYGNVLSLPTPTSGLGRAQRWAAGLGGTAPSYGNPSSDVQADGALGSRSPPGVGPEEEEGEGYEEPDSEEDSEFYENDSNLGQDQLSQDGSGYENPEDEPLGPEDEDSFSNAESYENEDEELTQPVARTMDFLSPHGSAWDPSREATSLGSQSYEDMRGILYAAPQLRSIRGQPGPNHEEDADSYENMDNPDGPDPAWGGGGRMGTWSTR


Assays:
Experiment in all cases: cell-based or functional assay
transferrin receptor = transferrin receptor (UniProt P02786)
Sequence of transferrin receptor (P02786 whole entry): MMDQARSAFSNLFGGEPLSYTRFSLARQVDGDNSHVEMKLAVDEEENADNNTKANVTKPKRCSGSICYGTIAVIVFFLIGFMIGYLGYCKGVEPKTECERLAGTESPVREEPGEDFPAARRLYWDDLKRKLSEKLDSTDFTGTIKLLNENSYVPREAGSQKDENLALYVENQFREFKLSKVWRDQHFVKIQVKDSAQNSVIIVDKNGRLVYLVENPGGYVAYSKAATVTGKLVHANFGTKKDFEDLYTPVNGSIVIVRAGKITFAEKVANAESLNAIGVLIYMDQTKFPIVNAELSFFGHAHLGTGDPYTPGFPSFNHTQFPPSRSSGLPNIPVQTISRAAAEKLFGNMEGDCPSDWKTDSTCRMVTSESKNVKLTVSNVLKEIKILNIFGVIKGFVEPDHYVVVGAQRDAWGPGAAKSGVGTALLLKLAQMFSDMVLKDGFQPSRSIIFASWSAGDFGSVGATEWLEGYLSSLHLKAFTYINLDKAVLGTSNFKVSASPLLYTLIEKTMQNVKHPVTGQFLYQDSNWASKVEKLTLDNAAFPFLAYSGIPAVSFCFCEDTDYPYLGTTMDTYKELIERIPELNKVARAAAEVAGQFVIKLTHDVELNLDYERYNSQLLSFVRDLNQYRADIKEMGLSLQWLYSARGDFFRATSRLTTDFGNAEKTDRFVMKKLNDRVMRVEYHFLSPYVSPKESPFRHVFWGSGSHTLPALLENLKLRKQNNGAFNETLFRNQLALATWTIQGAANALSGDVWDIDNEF

CD19 [1] = biological target: T1, CD19
CD19 [2] = biological target: T1, CD19; remark: listed apart in the source

Molecule | IC50, cytotoxicity, colorectal cell line HT-29 (TfR copy number 23K) (transferrin receptor) [nM] | IC50, cytotoxicity, melanoma cell line SK-MEL-5 (TfR copy number 21K) (transferrin receptor) [nM] | IC50, in vitro cytotoxicity, RL cells (CD19 [1]) [µg/mL] | IC50, in vitro cytotoxicity, Ramos cells (CD19 [1]) [µg/mL] | IC50, in vitro cytotoxicity, SU-DHL-4 cells (CD19 [1]) [µg/mL] | IC50, in vitro cytotoxicity, WSU-DLCL-2 cells (CD19 [1]) [µg/mL] | fold improvement in cytotoxicity against the 8-load conjugate, Raj cells (CD19 [2]) [fold] | fold improvement in cytotoxicity against the 8-load conjugate, Ramos cells (CD19 [2]) [fold]
8-load anti-transferrin receptor ADC (cOKT9) having -X-D of MDpr-PABA(gluc)-Camptothecin (antibody) | > 1000 | > 1000 |  |  |  |  |  | 
hBU12-14 (antibody, V domains shown, antibody carries drug-linker 14 (MDpr-glucuronide-MMAE, no PEG), 8 drugs per antibody) VH: QVQLQESGPGLVKPSQTLSLTCTVSGGSISTSGMGVGWIRQHPGKGLEWIGHIWWDDDKRYNPALKSRVTISVDTSKNQFSLKLSSVTAADTAVYYCARMELWSYYFDYWGQGTLVTVSS VL: EIVLTQSPATLSLSPGERATLSCSASSSVSYMHWYQQKPGQAPRLLIYDTSKLASGIPARFSGSGSGTDFTLTISSLEPEDVAVYYCFQGSVYPFTFGQGTKLEIKR |  |  | 0.061 | 0.002 | 0.022 | 0.005 |  | 
hBU12-18 (antibody, V domains shown, antibody carries drug-linker 18 (MDpr-Lys(PEG8)-glucuronide-MMAE), 8 drugs per antibody) VH: QVQLQESGPGLVKPSQTLSLTCTVSGGSISTSGMGVGWIRQHPGKGLEWIGHIWWDDDKRYNPALKSRVTISVDTSKNQFSLKLSSVTAADTAVYYCARMELWSYYFDYWGQGTLVTVSS VL: EIVLTQSPATLSLSPGERATLSCSASSSVSYMHWYQQKPGQAPRLLIYDTSKLASGIPARFSGSGSGTDFTLTISSLEPEDVAVYYCFQGSVYPFTFGQGTKLEIKR |  |  | > 1 | 0.002 | 0.016 | 0.211 |  | 
hBU12-43 (antibody, V domains shown, antibody carries drug-linker 43 (MDpr-Lys(PEG2)-glucuronide-MMAE), 8 drugs per antibody) VH: QVQLQESGPGLVKPSQTLSLTCTVSGGSISTSGMGVGWIRQHPGKGLEWIGHIWWDDDKRYNPALKSRVTISVDTSKNQFSLKLSSVTAADTAVYYCARMELWSYYFDYWGQGTLVTVSS VL: EIVLTQSPATLSLSPGERATLSCSASSSVSYMHWYQQKPGQAPRLLIYDTSKLASGIPARFSGSGSGTDFTLTISSLEPEDVAVYYCFQGSVYPFTFGQGTKLEIKR |  |  | 0.229 | 0.002 | > 1 | 0.012 |  | 
hBU12-16 (antibody, V domains shown, antibody carries drug-linker 16 (MDpr-Lys(PEG24)-glucuronide-MMAE), 8 drugs per antibody) VH: QVQLQESGPGLVKPSQTLSLTCTVSGGSISTSGMGVGWIRQHPGKGLEWIGHIWWDDDKRYNPALKSRVTISVDTSKNQFSLKLSSVTAADTAVYYCARMELWSYYFDYWGQGTLVTVSS VL: EIVLTQSPATLSLSPGERATLSCSASSSVSYMHWYQQKPGQAPRLLIYDTSKLASGIPARFSGSGSGTDFTLTISSLEPEDVAVYYCFQGSVYPFTFGQGTKLEIKR |  |  | > 1 | 0.004 | > 1 | 0.003 |  | 
hBU12 32-load conjugate having the -X-D moiety of MDpr-PAB(gluc)-Camptothecin (antibody, V domains shown, antibody carries PEGylated multiplexed scaffold C with MDpr-PAB(gluc)-Camptothecin, 32 drugs per antibody) VH: QVQLQESGPGLVKPSQTLSLTCTVSGGSISTSGMGVGWIRQHPGKGLEWIGHIWWDDDKRYNPALKSRVTISVDTSKNQFSLKLSSVTAADTAVYYCARMELWSYYFDYWGQGTLVTVSS VL: EIVLTQSPATLSLSPGERATLSCSASSSVSYMHWYQQKPGQAPRLLIYDTSKLASGIPARFSGSGSGTDFTLTISSLEPEDVAVYYCFQGSVYPFTFGQGTKLEIKR |  |  |  |  |  |  | > 5 | > 5
hBU12-42 (antibody, V domains shown, antibody carries drug-linker 42 (MDpr-Lys(PEG4)-glucuronide-MMAE), 8 drugs per antibody) VH: QVQLQESGPGLVKPSQTLSLTCTVSGGSISTSGMGVGWIRQHPGKGLEWIGHIWWDDDKRYNPALKSRVTISVDTSKNQFSLKLSSVTAADTAVYYCARMELWSYYFDYWGQGTLVTVSS VL: EIVLTQSPATLSLSPGERATLSCSASSSVSYMHWYQQKPGQAPRLLIYDTSKLASGIPARFSGSGSGTDFTLTISSLEPEDVAVYYCFQGSVYPFTFGQGTKLEIKR |  |  | > 1 | 0.003 | > 1 | 0.005 |  | 
hBU12-17 (antibody, V domains shown, antibody carries drug-linker 17 (MDpr-Lys(PEG12)-glucuronide-MMAE), 8 drugs per antibody) VH: QVQLQESGPGLVKPSQTLSLTCTVSGGSISTSGMGVGWIRQHPGKGLEWIGHIWWDDDKRYNPALKSRVTISVDTSKNQFSLKLSSVTAADTAVYYCARMELWSYYFDYWGQGTLVTVSS VL: EIVLTQSPATLSLSPGERATLSCSASSSVSYMHWYQQKPGQAPRLLIYDTSKLASGIPARFSGSGSGTDFTLTISSLEPEDVAVYYCFQGSVYPFTFGQGTKLEIKR |  |  | > 1 | 0.002 | > 1 | 0.129 |  | 
hBU12-19 (antibody, V domains shown, antibody carries drug-linker 19 (MDpr-Lys(PEG4[PEG4]3)-glucuronide-MMAE, branched PEG), 8 drugs per antibody) VH: QVQLQESGPGLVKPSQTLSLTCTVSGGSISTSGMGVGWIRQHPGKGLEWIGHIWWDDDKRYNPALKSRVTISVDTSKNQFSLKLSSVTAADTAVYYCARMELWSYYFDYWGQGTLVTVSS VL: EIVLTQSPATLSLSPGERATLSCSASSSVSYMHWYQQKPGQAPRLLIYDTSKLASGIPARFSGSGSGTDFTLTISSLEPEDVAVYYCFQGSVYPFTFGQGTKLEIKR |  |  | > 1 | 0.002 | > 1 | 0.247 |  | 

Reference: patent US20240325561A1 (Seagen, published 2024)
